Experimental data: the DeepSol protein solubility set

Test: soluble on expression in E. coli; label from the status in PepcDB or PDB records

Sequence | soluble on expression in E. coli
GAMGSMATRIAILGAGPSGMAQLRAFQSAQEKGAEIPELVCFEKQADWGGQWNYTWRTGLDENGEPVHSSMYRYLWSNGPKECLEFADYTFDEHFGKPIASYPPREVLWDYIKGRVEKAGVRKYIRFNTAVRHVEFNEDSQTFTVTVQDHTTDTIYSAAFDYVVCCTGHFSTPYVPEFEGFEKFGGRILHAHDFRDALEFKDKTVLLVGSSYSAEDIGSQCYKYGAKKLISCYRTAPMGYKWPENWDERPNLVRVDTENAYFADGSSEKVDAIILCTGYIHHFPFLNDDLRLVTNNRLWPLNLYKGVVWEDNPKFFYIGMQDQWYSFNMFDAQAWYARDVIMGRLPLPSKEEMKADSMAWREKELTLVTAEEMYTYQGDYIQNLIDMTDYPSFDIPATNKTFLEWKHHKKENIMTFRDHSYRSLMTGTMAPKHHTPWIDALDDSLEAYLSDKSEIPVAKEA | soluble
MIKKVVNLIMTKERRTFSSEFKLQMVRLYKNGKLKNEIIRKYDLKPSIISNSIKQHQNTGPFNHQDNLKSDEKELIKLRKEVQHLKMEHDVLKQILKLILEHHHHHH | not soluble
MRGKVYLVGAGFGGPEHLTLKALRVLEVAEVVLHDRLVHPGVLALAKGELVPVGKEGYGGKTPQEAITARLIALAREGRVVARLKGGDPMVFGRGGEEALALRRAGIPFEVVPGVTSAVGALSALGLPLTHRGLARSFAVATGHDPALPLPRADTLVLLMPLHTLGGLKERLLERFPPETPLALLARVGWPGEAVRLGRVEDLPGLGEGLPSPALLVVGKVVGLYGELLPKDHGL | soluble
MGHHHHHHSHMLAQPEPLVWVSKWVDYSNKFGFGYQLSSRRVAVLFNDGTHMALSANRKTVHYNPTSTKHFSFSVGAVPRALQPQLGILRYFASYMEQHLMKGGDLPSVEEVEVPAPPLLLQWVKTDQALLMLFSDGTVQVNFYGDHTKLILSGWEPLLVTFVARNRSACTYLASHLRQLGCSPDLRQRLRYALRLLRDRSPA | not soluble
MGSDKIHHHHHHMKTRESSVGLKFRKFNRFYTNVLGFLNEHIYDSPFSLTETRILFEIYNTPNCTAKALQDKLGLDRGYVSRIVKQFEKEDLIYKQRSKDDARHHYIFVTETGKTIYKKLEEKANEQVELMLKVINQKEQHKLAEAMAEIEAILSQSLSARASEISIRDYFLSEDLQLLIEKQRQFYAEAHGWDDTFLAYLQETFDADIEKIWIAESGGKFAGSVGLVKHDEKTVQLRWFLVDADFRGRGLGTQLLEHLVAYCQDMKFDRIFLWTVSTMAEARPLYKKFGFRISEVKQEAPLWGQQLTEERWDLELS | not soluble
MGSDKIHHHHHHMRIIILSSSTNRSGGTRQAFYQARELATRGHHVSLCLPEDSQMHGMGYDDLIVTLPADRKRWKASIEALFAADGPTVVHAFHNRAVKFVAWHGMFWRHRGVVCCAHRGVMYRPGNPLPYISPGMDAFIANSQACARVLRLFTPAGKLFVVYNGVDDARVTPRTPADTAREQVGLPPRGAEAAWSSSSPAPLVFGFVGQNSPVKGADILIDAFARADVGEARLLMVGVSHDMWRPRCEALGIADRVHLVPHTESVSDMLQLMDAFVLPSRTESLPNTMLEAIRMGLPVIGSAVGGVPELVRGNGLLFPAGDIDALAAALGRMASDHATREAWAAASHAEGERYTIHARVDALEDIYAQLLRRRGLHTA | not soluble
MGSDKIHHHHHHMATLLLEDGTIESNLDEIARELAPLGVYIKHYDPGTSILFPHLLIQDALTDKEKCHIVDLHNSVFEFIQQENGYLWCDLLNVHPGSPNLQTLIATYAKYHTHTAPEALYVLAGEMIFGFVKPDGSQVQLLVQSQDYLHIPSGVEHWCSLTASLSFKAVRYFTAADGWVPNYTGTQLNDSLNK | not soluble
MPPNANSVGGPKKKNKKNHQRPQQQHQQTQPQPLPEEEQPENPIKKDPKPEVLEEVVEKNREEDKEKVEETVAPTIEKEKNISGDLLDFSSSDKSSLSSRPDSPEEDEDAVPVVNRTTTSPPTSPPSQTAVEQDSLQAEEMLVDMSLDDAPAAPPRKPHQRSAPPPIPSMNTIMTKPRTNSVSYIKGQVVRQSAVEQQTLANQVVDLVAMGMSKGQTQSSQITAEKAEWVQLTSVEKAGEPNERLEVLIVGLCRGYQIWTMSQSGEFEEVLSERQGPVRALKVLPNNLKLRGKKDSFADSRPLIAMVDASSHHPDRQYCSVTIISLLTGREVHKIKFEEPVCAVNVSDQFLVVSLANMAYAYDILTFNEVRTIRTAPSCENSPPALSLSCQLLAYADTSLDLNLQSSGGLAAEVEATSSEKYTDHIYTAMSYFSRSVKTISESVGAGSGSSTKANQPQGVITVLNLAVSGEDESDGVMCHYVAHVDPISYIAFSPDQRLVLSADANANVFNIFLLMPHATSSSLAAVQHLYKLNRGSTPAKVVSTAFSEDCRWLAITTNHATTHVFAVCPFGGKPNQRTHGDTFVNKESRFHRSAGLTDAADVTASIGPSKHRAMADSCSYTKEHPIAVNSPTLAKTNGNSRVGPFPPPLLLVATEKIKDSRYTKEDLSAWAADMTSFSYPAAQASSSPAVAARRRLEVSRMSVMFRMKSYNSTTSTKTAKTTKMLMSMSLVIAKVDPAQGVIVTQHDIKSLRKEGETNMEASPQISVAPVGGWILQRTKNNADMHAPMPSASPLMAFATVETVPAKRIGDEDVWTPHVETRTYLPPHRWIWQGPQFELFEYREDDQPSLMSPGNKGSNASFKSIPVLVGSEAVNITMKTIPADATRIECGSYTSANSYSIDQGSDQPVIGGYSSATNGDYIASIADAMRDISSDDDSTKKKSPKNDDLIEEFFDTESSTPFARNGSGSSSSTGATGGKSLKKKKTPPASAPLPTSSTKSSQKDKKVQNGRERSKDSDDFGTFDMDDI | not soluble
MRVRNRKGATELLEANPQYVVLNPLEAKAKWRDLFGNDNPIHVEVGSGKGAFVSGMAKQNPDINYIGIDIQKSVLSYALDKVLEVGVPNIKLLWVDGSDLTDYFEDGEIDRLYLNFSDPWPKKRHEKRRLTYKTFLDTFKRILPENGEIHFKTDNRGLFEYSLVSFSQYGMKLNGVWLDLHASDFEGNVMTEYEQKFSNKGQVIYRVEAEF | soluble
MAHHHHHHMAAAPSATAPKHNYTLGTNASQLELYKYLKTVPPIPELRQAVTIKKYEEASVDDTLYPLIDEHQIIMVVGAFFGDEGKGKTVDAVARHPACTCVARVNSGENAGHTVFDDIGRKYVFNLAPSSLLTPNTRNYVSSECVMDPISFMEREIGQFIKSNMPYKDKLFVGNVFVVTPYHKLLDLLGSAPNSSTLKGMSPIHASKVTKRGIRLDHIFNDEGVLRARLAKDMDTYYGLLKVKGLTDKDVVRRCQEENADGVERVPGYVVDFARAENKIDYLVKLYTERVKNNKDFPRRCDVTHELRAALARGEKLLLEGPQSYWLSNAREKFWESTTSADTTAGGLLASAQFNFQRYKVLVINVHKAPGSSRVGIGANPSSFVPQDYYSAQDIKTLEALPKGGCVDFDKIQNFFYTKAFNTESKTFNGIYEPLEYEDATGKYNIGVAMSIASARHHGECGAVTKKPRVCGFFDCVLHFEVNAVQGPYLSISAVDRGDDYDRIGITIAYVYYDVGNKMVDANGRVYKNGDIIKAGDPVPCEMALYHCYPIVKVINGWKGAPIAASKRRPNEPLPKGVCEFIANVEFFTGAKVISIGNGPRGSDIIYLKQ | soluble
QIDYMTNSDMGYDYRNKLIIDVFGLDPQIVSTMRTEIAKIPGITGIGLTRGTPLNGGNNNSSEYRGRPLSMQIFSIDSVALSLFDLKMKPNGRKADKPDRTLYLSRSAYNDFDVANLPDGVIHWGKAGEFYYCGDAPEVHFGGFKEPHPSYLFIPYPQSSAWSWSVLVGYSEGADPEQLIQSIQAVYSRITGQPYTEILRSEDIIASHSEEERSLS | not soluble
MTVQTSKNPQVDIAEDNAFFPSEYSLSQYTSPVSDLDGVDYPKPYRGKHKILVIAADERYLPTDNGKLFSTGNHPIETLLPLYHLHAAGFEFEVATISGLMTKFEYWAMPHKDEKVMPFFEQHKSLFRNPKKLADVVASLNADSEYAAIFVPGGHGALIGLPESQDVAAALQWAIKNDRFVISLCHGPAAFLALRHGDNPLNGYSICAFPDAADKQTPEIGYMPGHLTWYFGEELKKMGMNIINDDITGRVHKDRKLLTGDSPFAANALGKLAAQEMLAAYAGLEHHHHHH | soluble
MIIDQQLVCYKRLPNWTATTLPEMVTQKHNTKVGTWAKLTILSGTLHFYELDEQGEITAEHLFTPETEIPFVEPQSWHRIAAASDNLECYLSFYCKPEDYMAKKYDTKAHSEVLEAVQSGHIKPGRTLDLGCGHGRNALYLASLGHEVTAVDINNEATQRIQMIADEESYNVRAGYYDINVSALPESETFDFILSTVVFMFLDPNQIPAIIQNMQERTSIGGYNLIVCAMDTEEHPCTMPFPFTFEEGELKNYYSDWELIKYNENLGHLHRLDEHGNPIALQFATMLAKKVTLEHHHHHH | soluble
MAKDPRYVGNLPKIGIRPTIDGRRKGVRESLEETTMNMAKAVAKLLEENVFYYNGQPVECVIADTCIGGVKEAAEAAEKFAREGVGVSITVTPCWCYGTETMDMDPHIPKAVWGFNGTERPGAVYLAAVLAGYNQKGLPAFGIYGKDVQDAGDTNIPEDVKEKLIRFAKAGLAVAMMKGKSYLSIGSVSMGIAGSVVQEDFFQNYLGMRNEYVDMSEFVRRIELGIYDKEEYERALKWVKENCKVGPDNNRDGFKRTEEQKEKDWEISVKMALIARDLMVGNKKLEEMGYGEEALGRNAIVAGFQGQRQWTDYFPNGDFMETILNSSFDWNGKRAPYIFATENDNLNGISMLFGYLLTNTAQIFADVRTYWSPEAVKRVTGYTLEGRAANGIIHLINSGAAALDGTGEQTKDGKPVIKPYYELTDEDIKKCLEATQFRPASTEYFRGGGYSTDFLTKGGMPVTISRLNIVKGLGPVLQIAEGYTVDLPEEVHDVLDKRTDPTWPTTWFVPNLTGEGAFKDVYSVMNNWGANHCSISYGHIGADLITLASILRIPVNMHNVPEEKIFRPDAWSMFGTKDLEGADYRACKKLGPIYK | soluble
MAHHHHHHMLYSSIRYGRNCTGTNETVKPLGPCVTPLGTILGVFNGVFGYSNCNDSYVSTELRYINLTVPELNNETGQLTYISKQFYTGLAWQCVEYARRYWMQRGTPQPAYFDSVLGAADVWNLTFVRLLSNASITLPLRRYWNGDRVTDNHQIPAIGDIIIYPVQDGGFPYGHVAVIANVELSTHGAIYVAEQNWANAVWSSPHHNYTRRIPMFYDMLTSTITLDDSEHQIIGWMRYG | not soluble
MLDKLRSRLVHAGPSLMSVPVKLTPFALKRQVLEQVLSWQFRQALADGELEFLEGRWLSIHVRDIDLKWYTTVENEKLIVSQQADADVSFSADASDLLMIAARKQDPDTLFFQRRLVIEGDTELGLYVKNLMDAIELEQMPKALRVMLLQLADFVEAGMKNSPETKQTSVGEPC | not soluble
MSLERPEEYLPNIFEGKKGVIVDYGCGNGFYCKYLLEFATKLYCIDINVIALKEVKEKFDSVITLSDPKEIPDNSVDFILFANSFHDMDDKQHVISEVKRILKDDGRVIIIDWRKENTGIGPPLSIRMDEKDYMGWFSNFVVEKRFNPTPYHFGLVLKRKTSEGHHHHHPDPNSSSVDKLAAALEHHHHHH | soluble
MYAIAEDTLPARVLKELLLYRRRYPEHRQSASEADEIRRIEQVQLPRIAAFIEAGEPIEFVLPAFPAKSPNPGKVLDSRPDMAERLSLSFLNHLCQRIQLFYAPGAKITVCSDGRVFGDLVRIGDAHISAYQDALRLMIEEIGATHIGVFNLEDVRAFEAQRDNHEQLRQLLIGGYAEPLESIRETLLASEEGLLLYRAITRFLYEDGLTPDYQGSKTALQRDAKERAYGVIQRSWAWGALLADQFPRAIRLSIHPQPADSLKFGIHMMPTRDDWLTPWHGVAVNTEDRFVLMKRSEVLELGGELVQINGQPSHYRLPARAARRAAVALEHHHHHH | not soluble
